Source: article PMC7539298

Columns and labels:
[1] = target: Tyr10 (UniProt position 681, …); experiment: UV-vis; settings: 25 °C; none stated; titrated with concentrated NaOH; Cu(II)-bound: 0.9 mM Cu(II), 1.0 mM peptide
[2] = target: Asp7 (UniProt position 678, …); experiment: potentiometry; settings: 25 °C, 0.1 M (KNO3), none, 1.0 mM peptide in 4 mM HNO3/96 mM KNO3, under argon
[3] = target: Glu11 (UniProt position 682, …); experiment: potentiometry; settings: 25 °C, 0.1 M (KNO3), none, 1.0 mM peptide in 4 mM HNO3/96 mM KNO3, under argon
[4] = target: His6 (UniProt position 677, …); experiment: potentiometry; settings: 25 °C; 0.1 M (KNO3); none; 1.0 mM peptide in 4 mM HNO3/96 mM KNO3, under argon; apo peptide (no metal)
[5] = target: Nterm5 (UniProt position 676, …); experiment: potentiometry; settings: 25 °C; 0.1 M (KNO3); none; 1.0 mM peptide in 4 mM HNO3/96 mM KNO3, under argon; apo peptide (no metal)
[6] = target: Tyr10 (UniProt position 681, …); experiment: potentiometry; settings: 25 °C; 0.1 M (KNO3); none; 1.0 mM peptide in 4 mM HNO3/96 mM KNO3, under argon; apo peptide (no metal)
[7] = target: Tyr10 (UniProt position 681, …); experiment: other (circular dichroism); settings: 25 °C; none stated; titrated with concentrated NaOH; Cu(II)-bound: 0.9 mM Cu(II), 1.0 mM peptide
[8] = Cu(II)-bound, mononuclear 3N complex (Arg5 N-terminal amine, Arg5-His6 amide N-, His6 imidazole, equatorial H2O), peptide:metal ratios 1:2, 1:1 and 1:0.5

RHDSGYEV [Amyloid-beta peptide fragment 5-12 (Abeta5-12) (Homo sapiens)]
pKa [1]: 8.95(7)
pKa [2, 8]: 3.23
pKa ([2]; apo peptide (no metal)): 2.73
pKa [3, 8]: 4.69
pKa ([3]; apo peptide (no metal)): 4.37
pKa [4]: 6.25
pKa [5]: 7.52
pKa [6]: 10.08
pKa [7]: 8.89(3)

RHDSG [Amyloid-beta peptide fragment 5-9 (Abeta5-9) (Homo sapiens)]
pKa [2, 8]: 3.82
pKa ([2]; apo peptide (no metal)): 3.17
pKa [4]: 6.13
pKa [5]: 7.37

RHDSGYEVHHQK [Amyloid-beta peptide fragment 5-16 (Abeta5-16) (Homo sapiens)]
pKa [2, 8]: 3.212
pKa ([2]; apo peptide (no metal)): 2.48
pKa [3, 8]: 4.169
pKa ([3]; apo peptide (no metal)): 3.92
pKa [5]: 7.60
